The text below walks through data of US11103562B2, “Composition comprising alkaline phosphatase for use in the treatment of arthritides” (AMRIF BV, priority 2017, dated 2021).

A value given as a limit tells only on which side of the number the result lay.

For data set [1], the system named is ED1-, ED2- and FRβ-positive macrophages in liver and spleen. Kind of data set: Macrophage infiltration in liver and spleen of arthritic rats (ED1/ED2 immunohistochemistry, FRβ immunofluorescence). Type of data set: in vivo, rat. The protocol:
The arthritic and contralateral knees from all rats were dissected in toto and fixed for 7 days at 4° C. in 10% freshly made paraformaldehyde in PBS with 2% sucrose (pH=7.3) prior to decalcification in osteosoft (101728, Merck, Germany) for ˜2.5 weeks at room temperature. Thereafter, knees were embedded in paraffin. Sections of 5 μm were cut through the centre of the joint in longitudinal direction and stained with haematoxylin and eosin (HE) to assess the degree of inflammation in synovial tissue. Liver and spleen sections from all rats were dissected and fixed in 4% paraformaldehyde for 24 h before embedding in paraffin. Sections of 5 μm were cut and stained initially with HE and then for macrophages Staining for macrophages with ED1 (homologous to human CD68), and ED2 (homologous to human CD163, a marker for M2 anti-inflammatory macrophages), or isotype control antibody was performed. Images were captured using a Leica 4000B microscope and Leica digital camera DC500 (Microsystems B. V. Rijswijk, The Netherlands).
Liver and spleen tissues collected at the end of the study were snap frozen in liquid nitrogen and stored at −80° C. Tissues were embedded in appropriate media (OCT; SKU4583, Tissue-Tek, Netherlands), cut using a cryotome cryostat (−20° C.) (Leica, The Netherlands) and placed on Superfrost (4951PLUS4, ThermoFisher, The Netherlands) glass slides for immunofluorescence (IF) staining Sections of 8 μm were cut and stained with haematoxylin and eosin. […]
Stained slides of liver and spleen sections of arthritic rats and AP-treated arthritic rats were blinded and counted by two independent observers for FRβ, ED1- and ED2-positive synovial macrophages. For quantification, representative areas of liver and spleen sections were divided into 4 regions, each representing a central pulp and vein, respectively. The FRβ, ED1- and ED2-positive macrophages were counted at 400× magnification as described above. […] As a reference liver and spleen sections of healthy rats were analyzed as control.

Data set [2] in a line: Tolerability of therapeutic interventions in arthritic rats. Type of data set: in vivo. The procedure:
All rats (except healthy) were immunized and arthritis was induced via 1× or 4× intra-articular (i.a) mBSA injections, 4 or 5 days apart in the arthritic (right) knee, the contralateral (left, non-arthritic) knee serving as control knee. For therapeutic interventions, AP (human recombinant placenta AP, TNO, Zeist, The Netherlands) was administered subcutaneously (s.c.) at a dose of 700 U/kg (≈200 μg), MTX (VU University Medical Centers' Pharmacy) was administered intra-peritoneal (i.p.) at two dosages: 0.3 mg/kg (low dose) and 1.0 mg/kg (high dose). The rats were divided in 8 groups, based on different treatments and treatment schedules. In a prophylactic setting, two rats received AP twice prior to intra-articular (i.a.) arthritis induction and four rats received AP twice prior to intra-articular and 4× PBS in between i.a. injections. In the treatment groups, arthritic rats were administered AP twice or 4× after arthritis induction, either as standalone therapy or in combination with low or high dose MTX. Control rats received 500 μL of PBS (i.p.). […] At the end of study, all rats were sacrificed and tissues were excised for further processing and various analyses.

Data set [3] can be described thus: AP plasma pharmacokinetics (enzymatic PNP assay) in healthy and arthritic rats. It counts as in vivo, rat. Particulars: for persistence of increased plasma AP levels: 4 hour sampling. The procedure:
An enzymatic assay was used to determine plasma concentrations of alkaline phosphatase prior to and 0-4 hours after administration a dose of 700 U/kg AP to healthy rats and arthritic rats, FIG. 7. At time points 0, 15, 60, 120 and 240 min after AP administration, a blood sample was drawn from the tail vain of the rats and transferred to a lml Eppendorf microtube containing heparin (454081, Greiner bio-one, Charlotte, USA) as anti-coagulant. As a control, blood was drawn at the same time points from arthritic rats that were injected a t=0 with 500 μl PBS. Eppendorf tubes were centrifuged at 3,000×g for 5 min at 4° C., after which the plasma was collected and stored at −80° C. until use.
The enzymatic assay for AP is based on the conversion of the substrate paranitrophenol-phosphate (PNP; 104105, Sigma-Aldrich, Zwijdrecht, the Netherlands) to paranitrophenol which is measured spectrophotometrically at 405 nm at 25° C. To a 3 ml reaction cuvette was added 2.9 ml substrate solution (containing final concentrations of 25 mM glycine, 10 mM MgCl2, 3 mM PNP, adjusted to pH 9.6 with NaOH). The reaction was started by adding 30 μl of plasma sample, 1:1 diluted in enzyme diluent buffer (25 mM glycine, 1 mM MgCl2, 0.1 mM ZnCl2, 10% (v/v) glycerol, adjusted to pH 9.6 with NaOH). In parallel a reference cuvette was assayed without substrate. The reaction was followed on line for 5 min at 25° C. with continuous monitoring increase of absorbance at 405 nm using a (10037-434, VWR, Radnor, Pa.<USA) spectrophotometer. From the linear phase of A405 increments, AP activity in plasma samples (in U/L) was calculated from a standard curve with serial dilutions of a human recombinant placenta AP stock solution. One Unit of activity is defined as the amount of enzyme decomposing 1 μmol of PNP/min at 25° C.

B1: AP: human recombinant placenta alkaline phosphatase (hRESCAP; TNO, Zeist), an ectophosphatase (protein, UniProt P05187 23-506, looked up)
Alkaline phosphatase, …: IIPVEEENPDFWNREAAEALGAAKKLQPAQTAAKNLIIFLGDGMGVSTVTAARILKGQKKDKLGPEIPLAMDRFPYVALSKTYNVDKHVPDSGATATAYLCGVKGNFQTIGLSAAARFNQCNTTRGNEVISVMNRAKKAGKSVGVVTTTRVQHASPAGTYAHTVNRNWYSDADVPASARQEGCQDIATQLISNMDIDVILGGGRKYMFRMGTPDPEYPDDYSQGGTRLDGKNLVQEWLAKRQGARYVWNRTELMQASLDPSVTHLMGLFEPGDMKYEIHRDSTLDPSLMEMTEAALRLLSRNPRGFFLFVEGGRIDHGHHESRAYRALTETIMFDDAIERAGQLTSEEDTLSLVTADHSHVFSFGGYPLRGSSIFGLAPGKARDRKAYTVLLYGNGPGYVLKDGARPDVTESESGSPEYRQQSAVPLDEETHAGEDVAVFARGPQAHLVHGVQEQTFIAHVMAFAACLEPYTACDLAPPAGTTD
B1: the “reduction of both ED1- and ED2-positive infiltrating macrophages in spleen” value in data set [1] (AP-treated vs saline-treated arthritic rats) is reported as approximately 30%. In addition, in data set [1] (AP-treated vs saline-treated arthritic rats, p<0.001), the “decrease of both ED1- and ED2-positive infiltrating macrophages in liver” value is on record as approximately 50%. Moreover, the “FRβ-positive macrophages in liver and spleen” value in data set [1] (after AP treatment, arthritic rats) is “lowered number”. Also, the “changes in body weight” value in data set [2] is “nor were significant changes in the body weight observed”. The “tolerability / adverse effects” value in data set [2] (AP 700 U/kg, MTX 0.3 or 1.0 mg/kg) was “well tolerated”. Moreover, the “maximum increase of plasma AP levels over baseline” value was 1.7 fold in data set [3] (arthritic rats, 700 U/kg i.p.) and 1.5 fold in data set [3] (healthy rats, 700 U/kg i.p.). Also, the “time for plasma AP levels to drop to basal levels” value in data set [3] (arthritic rats, 700 U/kg i.p.) is “steadily returned to baseline levels”; in data set [3] (arthritic rats, 700 U/kg i.p., listed as hRESCAP), not above 4 h. Further, the “time to maximum (peak) plasma AP level” value in data set [3] (healthy and arthritic rats, 700 U/kg i.p.) was 1 h. Moreover, in data set [3] (healthy and arthritic rats, single i.p. dose of 700 U/kg), the “peak plasma levels above baseline” value is 50-70%. Also, the “persistence of increased plasma AP levels” value is on record as “retained for up to 4 hours” in data set [3] (healthy rats, 700 U/kg i.p.) and “remained stably higher above control level in plasma over 4 hours” in data set [3] (healthy rats, 700 U/kg i.p., listed as hRESCAP).
